Measurements taken from the Immune Epitope Database (IEDB).

Legend:
HLA-C*14:02 = assay: IEDB peptide-MHC binding, purified MHC/competitive/fluorescence; filed as Kd, often an IC50 or EC50 that approximates it; ≥ and ≤ were set here for values at or beyond the usual limits of such assays; details: source organism: Coxiella burnetii Dugway 5J108-111
HLA-B*45:06 = assay: as above; details: source organism: Coxiella burnetii Dugway 5J108-111
HLA-A*32:07 = assay: as above; details: source organism: Coxiella burnetii Dugway 5J108-111
HLA-A*32:15 = assay: as above; details: source organism: Coxiella burnetii Dugway 5J108-111
HLA-B*15:42 = assay: as above; details: source organism: Coxiella burnetii Dugway 5J108-111
HLA-B*83:01 = assay: as above; details: source organism: Coxiella burnetii Dugway 5J108-111
HLA-A*68:23 = assay: as above; details: source organism: Coxiella burnetii Dugway 5J108-111
HLA-C*06:02 = assay: as above; details: source organism: Coxiella burnetii Dugway 5J108-111
HLA-A*03:01 = assay: IEDB peptide-MHC binding, purified MHC/direct/fluorescence; filed as Kd, often an IC50 or EC50 that approximates it; ≥ and ≤ were set here for values at or beyond the usual limits of such assays
HLA-B*27:05 = assay: as above
HLA-C*03:03 = assay: as above; details: source organism: Coxiella burnetii Dugway 5J108-111
HLA-A*02:01 = assay: as above
HLA-B*15:01 = assay: as above
HLA-B*40:01 = assay: as above
HLA-B*15:09 = assay: as above; details: source organism: Coxiella burnetii Q321
HLA-B*07:02 = assay: as above
HLA-A*01:01 [1] = assay: as above
HLA-B*58:01 = assay: as above
HLA-C*08:02 = assay: as above; details: source organism: Coxiella burnetii Dugway 5J108-111
HLA-B*44:02 = assay: as above
HLA-A*24:02 = assay: as above; details: source organism: Coxiella burnetii
HLA-A*01:01 [2] = assay: IEDB peptide-MHC binding, purified MHC/competitive/fluorescence; filed as Kd, often an IC50 or EC50 that approximates it; ≥ and ≤ were set here for values at or beyond the usual limits of such assays; details: source organism: West Nile virus
HLA-A*80:01 = assay: IEDB peptide-MHC binding, purified MHC/direct/fluorescence; filed as Kd, often an IC50 or EC50 that approximates it; ≥ and ≤ were set here for values at or beyond the usual limits of such assays; details: source organism: West Nile virus
HLA-A*29:02 = assay: as above; details: source organism: West Nile virus strain PTRoxo
HLA-A*02:11 = assay: as above; details: source organism: West Nile virus strain PTRoxo
HLA-B*51:01 = assay: as above; details: source organism: West Nile virus strain PTRoxo
HLA-A*02:03 = assay: as above; details: source organism: West Nile virus strain PTRoxo
HLA-A*25:01 = assay: as above; details: source organism: West Nile virus strain PTRoxo
HLA-A*02:19 = assay: as above; details: source organism: West Nile virus strain PTRoxo
HLA-A*02:12 = assay: as above; details: source organism: West Nile virus strain PTRoxo
HLA-A*30:01 = assay: as above; details: source organism: Escherichia coli O157:H7
HLA-B*08:01 = assay: as above; details: source organism: Escherichia coli O157:H7
HLA-A*31:01 = assay: as above; details: source organism: Escherichia coli O157:H7
HLA-A*26:01 = assay: as above; details: source organism: Escherichia coli O157:H7
HLA-A*24:03 = assay: as above; details: source organism: Escherichia coli O157:H7
HLA-A*69:01 = assay: as above; details: source organism: Escherichia coli O157:H7
HLA-A*11:01 = assay: as above; details: source organism: Escherichia coli O157:H7
[3] = source organism: Coxiella burnetii
[4] = source organism: West Nile virus strain PTRoxo
[5] = source organism: Escherichia coli O157:H7

MTFPVSLEY
Kd (HLA-C*14:02): 0.123 µM
Kd (HLA-B*45:06): ≥ 5 µM
Kd (HLA-A*32:07): 0.0363 µM
Kd (HLA-A*32:15): 0.018 µM
Kd (HLA-B*15:42): ≥ 5 µM
Kd (HLA-B*83:01): 3.5 µM
Kd (HLA-A*68:23): ≤ 0.0001 µM
Kd (HLA-C*06:02): 0.0396 µM
Kd (HLA-A*03:01; [3]): 0.0482 µM
Kd (HLA-B*27:05; [3]): ≥ 20 µM
Kd (HLA-C*03:03): 0.24 µM
Kd (HLA-A*02:01; [3]): ≥ 20 µM
Kd (HLA-B*15:01; [3]): 0.0434 µM
Kd (HLA-B*40:01; [3]): ≥ 20 µM
Kd (HLA-B*15:09): ≥ 20 µM
Kd (HLA-B*07:02; [3]): ≥ 20 µM
Kd (HLA-A*01:01 [1]; [3]): 0.014 µM
Kd (HLA-B*58:01; [3]): 0.0249 µM
Kd (HLA-C*08:02): ≥ 20 µM
Kd (HLA-B*44:02; [3]): ≥ 20 µM
Kd (HLA-A*24:02): ≥ 20 µM

MTRGLLGSY
Kd (HLA-A*01:01 [2]): 0.519 µM
Kd (HLA-A*80:01): 0.173 µM
Kd (HLA-A*29:02): 0.099 µM
Kd (HLA-A*02:01; [4]): ≥ 20 µM
Kd (HLA-A*02:11): ≥ 20 µM
Kd (HLA-B*40:01; [4]): ≥ 20 µM
Kd (HLA-B*51:01): ≥ 20 µM
Kd (HLA-B*07:02; [4]): ≥ 20 µM
Kd (HLA-B*58:01; [4]): ≥ 20 µM
Kd (HLA-A*02:03): ≥ 20 µM
Kd (HLA-A*25:01): 0.009 µM
Kd (HLA-A*02:19): ≥ 20 µM
Kd (HLA-A*02:12): ≥ 20 µM

VTRQIHNPR
Kd (HLA-A*03:01; [5]): 11.6 µM
Kd (HLA-B*27:05; [5]): ≥ 20 µM
Kd (HLA-A*30:01): 0.00693 µM
Kd (HLA-B*08:01): ≥ 20 µM
Kd (HLA-A*02:01; [5]): ≥ 20 µM
Kd (HLA-B*15:01; [5]): ≥ 20 µM
Kd (HLA-B*40:01; [5]): ≥ 20 µM
Kd (HLA-A*31:01): 0.0968 µM
Kd (HLA-A*26:01): ≥ 20 µM
Kd (HLA-B*07:02; [5]): ≥ 20 µM
Kd (HLA-A*24:03): ≥ 20 µM
Kd (HLA-A*01:01 [1]; [5]): ≥ 20 µM
Kd (HLA-B*58:01; [5]): ≥ 20 µM
Kd (HLA-A*69:01): ≥ 20 µM
Kd (HLA-B*44:02; [5]): ≥ 20 µM
Kd (HLA-A*11:01): 1.86 µM
